# Results from patent US20230312739A1 (BIOTHEUS, published 2023).
# Substitutions are numbered along the chain they refer to.
# B1: murine antibody 13D12 (antibody, V domains shown)
# VH: DVKLQESGPAMVKPSQSLSLTCTVTGYSITSGYDWHWIRLFPGNKLEWMGYISYSGYTDYSPSLKSRISITHDTSKNHFFLKLHSVTTEDTATYYCTRGDHSYAMDYWGQGTSVTVS
# VL: DIVMTQSHKFMSTSVGDRVSITCKASQAVGTAVAWYQQKPGQSPKLLIYWASSRHTGVPDRFTGSRSGTDFTLTISSVQSEDLADYFCQQYSSYPLTFGGGTNLEIK
# notes: Mouse monoclonal antibody purified from hybridoma supernatant; also called mouse monoclonal antibody 13D12
# Assays:
# [1] = target: T1, murine CD73 on 4T1 cells (murine, UniProt Q61503 29-551); assay: cell binding on adherent 4T1 cells, DyLight488 goat anti-mouse IgG, full-field cell scanning analyzer (Celigo), % fluorescent cells
# T1 construct: whole, on cells; also called 4T1 (endogenously expressing murine CD73)
# T1 sequence (looked up): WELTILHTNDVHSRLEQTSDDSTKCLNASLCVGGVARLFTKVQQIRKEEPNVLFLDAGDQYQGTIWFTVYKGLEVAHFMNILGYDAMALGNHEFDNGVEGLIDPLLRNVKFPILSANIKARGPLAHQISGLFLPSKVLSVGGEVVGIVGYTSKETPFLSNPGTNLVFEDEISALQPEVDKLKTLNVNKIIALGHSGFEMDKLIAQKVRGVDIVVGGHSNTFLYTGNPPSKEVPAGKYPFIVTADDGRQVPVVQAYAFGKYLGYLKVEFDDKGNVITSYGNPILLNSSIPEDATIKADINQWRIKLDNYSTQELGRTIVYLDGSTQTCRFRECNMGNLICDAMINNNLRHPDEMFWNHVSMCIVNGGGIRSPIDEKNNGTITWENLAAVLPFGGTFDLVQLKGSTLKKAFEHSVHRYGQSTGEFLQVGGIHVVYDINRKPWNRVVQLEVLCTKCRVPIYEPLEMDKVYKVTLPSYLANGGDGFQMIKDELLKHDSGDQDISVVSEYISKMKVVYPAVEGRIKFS
# Description: (§1) Experimental method: 10,000 cells were plated on a flat-bottom 96-well plate with 100 μL DMEM+10% FBS/well, cultured overnight so that the cells adhered to the well, and the supernatant was discarded on the next day. Serial 3-fold dilutions of antibody for 8 points were performed by diluting ⅓ of the total volume (100 μL) in 200 μL DMEM. 100 μL of the diluted antibody was added to each well of the cell plate (the supernatants of fused clones or subclones were used for screening), 100 μL of DMEM was added to the corresponding negative control well, and incubation was performed at room temperature for 1 hour. After the supernatant was discarded, 100 μL of secondary antibody (DyLight488 goat anti-mouse IgG (Abcam, Cat. No. ab97015)) was added to each well at a concentration of 5 μg/mL (diluted in DMEM), and incubation was performed for 0.5 hours at room temperature. After staining, the supernatant was discarded, followed by washing once with PBS+2% FBS, then 100 μL of PBS+2% FBS was added to each well, and then reading was performed on analyzer. A full-field cell scanning analyzer (Nexcelom Company, model Celigo® Image Cytometer) was used to measure the reading of the experimental plate. […] The binding effect of the anti-CD73 antibody to the CD73-expressing cell line was determined according to the percentage. […]
# [2] = target: T2, human CD73 on the cell surface (tumor cells endogenously expressing human CD73; CHOS-human CD73) (human, UniProt P21589 27-549); assay: full-field cell scanning analyzer (Celigo), percent fluorescent cells, SK-ME-S cells endogenously expressing human CD73
# T2 construct: The endogenous CD73 of the human tumor lines (MDA-MB-231, Calu6, SK-ME-S, H2030, SKLU1, BT549, A375, HCC44) is treated as the same protein
# T2 sequence: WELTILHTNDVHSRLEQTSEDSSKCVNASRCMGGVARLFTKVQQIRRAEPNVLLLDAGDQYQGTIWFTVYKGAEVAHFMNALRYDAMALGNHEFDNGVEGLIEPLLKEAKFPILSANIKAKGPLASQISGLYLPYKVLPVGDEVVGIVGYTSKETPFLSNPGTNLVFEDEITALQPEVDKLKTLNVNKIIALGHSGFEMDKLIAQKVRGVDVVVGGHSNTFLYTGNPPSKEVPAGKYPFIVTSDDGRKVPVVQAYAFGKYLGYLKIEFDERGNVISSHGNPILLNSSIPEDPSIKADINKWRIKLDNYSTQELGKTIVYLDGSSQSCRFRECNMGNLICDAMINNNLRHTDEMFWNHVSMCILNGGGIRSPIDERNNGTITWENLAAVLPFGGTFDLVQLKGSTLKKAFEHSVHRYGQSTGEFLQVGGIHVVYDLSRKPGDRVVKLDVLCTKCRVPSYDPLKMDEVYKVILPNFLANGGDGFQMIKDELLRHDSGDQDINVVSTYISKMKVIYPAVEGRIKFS
# Description: as §1
# [3] = target: T3, CD73 on cynomolgus macaques CD3+CD8+ T cells (cynomolgus macaques, UniProt A0A2K5V5U7 27-549); assay: flow cytometry on cynomolgus macaque PBMC, CD3+CD8+ T cells, donor 1132F
# T3 construct: whole, on cells; also called cynomolgus macaques T cells; cynomolgus macaques PBMC
# T3 sequence: T2 sequence with M199T, T350A, V466I
# Description: Monkey blood samples from two donors (1132F and 1300M) were obtained from Medicilon. Peripheral blood mononuclear cells (PBMCs) were isolated using a Ficoll density gradient centrifugation system. The PBMCs were incubated with the antibody to be tested, then the antibodies bound on the cells were stained with fluorochrome-labeled secondary antibodies (DyLight488 goat anti-mouse IgG, Abcam Cat. No. ab97015; DyLight488 goat anti-human IgG, Abcam Cat. No. ab97003), and the fluorochrome-labeled antibodies against CD3+ and CD8+ were used to recognize T cells. Together with the unstained control samples and the fluorescence compensation control samples, all the samples were run on a flow cytometer to detect the binding of the antibodies to cynomolgus macaques T cells.
binder,measurement,setting,value
B1,binding result,[1],no binding
same,EC50,[2],1.72 µg/mL
same,MFI FC (fold change of mean fluorescence intensity),[3],5 fold
